The series can be described thus: label from the status in PepcDB records.
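Further: failed if final PepcDB status was selected cloned or expressed and not failed if soluble or beyond.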

On to “MECGVFHTPYMRPGRKDKDTFEYSLLLAAACDKFGYRDFMVGEHGMQAWENIPNPELLIVAAAQITERMRFAPMAHIVPLHNPSTLAIQIGYTSQLLEDRYFLGVGAGSWENEAVLRGQPGDLSEAHPRLMEGLEVMDKVWRQEPFDFEGKYYKAARLDGQIDPGSVASHGEFKVKDGEEYHLTADHSPHGGADGLEIAVTGLSKNSPSHRLAGERGWTPISFYGGSALLRSQWDTYSEAVRSIGGTPQGSRFKIARDVFVAKTDEEAKEKAKNGALGLAWQKYLMPVYQKYRILQGFIDDADHKVDIDDVDLDYLADNVWLCGSPDTVIEKIEKTFDLAGFRYGQLAVNTHDAMDDPEPWIESLRLFATEVVPNVPVEGTHETVAVG”, for which the protein production result is reported as “failed”.

“MEDEIKSFAKDRKLIIEDSKNSKNNIVEVQKAIETLKDEKNAKNVVVDFTEYNPLHNGHKYCMDFGKREGLFISVIPGPLERSGRGIPYLVNRYIRSEMALLAGADLVVEGPPMGIMGSGQYMQCLIKIFSALNGDIIPRGYIEEETMEKVINSINNKNHIKIKPYNISCIETGEKFGEKLEIDNYVIASMSYTIYKLKENFPEWKPKFKFIERIEGISGTKIREGVFNNNFESIKHMLPETTLNVFKSFENNLSEIILKRNEQMVLDTVNNFDLSKYLPENISEKLNEKEYYKSIEEIKECIPRGFSKNNIERTISKLEARIEKETISKYIENYPANLKILKGINNNE”: the protein production entry is “failed”.

In the case of “MEDFWVQYGDEMLPVIGDFPRKGDYLPSFMLVDDQKHDAALESFSHTPKLIVTLLSVDEDEHAGLLLLRETRRFLDSWPHLKLIVITVDSPSSLARARHEHGLPNIALLSTLRGRDFHKRYGVLITEYPLSGYTSPAIILADAANVVHYSERLANTRDFFDFDAIEKLLQEGEQQAMAAEREAAEARQEQDAEREKGTERLLEKAKLIQDQLNRNGDPGR”, the protein production result is given as “not failed”.

For the sequence “MEDKFANLSLHEKTGKSSIQLNEQTGSDNGSAVKRTSSTSSHYNNINADLHARVKAFQEQRALKRSASVGSNQSEQDKGSSQSPKHIQQIVNKPLPPLPVAGSSKVSQRMSSQVVQASSKSTLKNVLDNQETQNITDVNINIDTTKITATTIGVNTGLPATDITPSVSNTASATHKAQLLNPNRRAPRRPLSTQHPTRPNVAPHKAPAIINTPKQSLSARRAVKLPPGGMSLKMPTKTAQQPQQFAPSPSNKKHIETLSNSKVVEGKRSNPGSLINGVQSTSTSSSTEGPHDTVGTTPRTGNSNNSSNSGSSGGGGLFANFSKYVDIKSGSLNFAGKLSLSSKGIDFSNGSSSRITLDELEFLDELGHGNYGNVSKVLHKPTNVIMATKEVRLELDEAKFRQILMELEVLHKCNSPYIVDFYGAFFIEGAVYMCMEYMDGGSLDKIYDESSEIGGIDEPQLAFIANAVIHGLKELKEQHNIIHRDVKPTNILCSANQGTVKLCDFGVSGNLVASLAKTNIGCQSYMAPERIKSLNPDRATYTVQSDIWSLGLSILEMALGRYPYPPETYDNIFSQLSAIVDGPPPRLPSDKFSSDAQDFVSLCLQKIPERRPTYAALTEHPWLVKYRNQDVHMSEYITERLERRNKILRERGENGLSKNVPALHMGGL”, the protein production entry is recorded as “failed”.

For the sequence “MEDKPLGILRVHVKRGINLAIRDATTSDPYVVITLANQKLKTRVINNNCNPVWNEQLTLSIKDVNDPIRLTVFDKDRFSGDDKMGDAEIDFRPFLEAHQMELDFQKLPNGCAIKRIRPGRTNCLAEESSITWSNGKIMQEMILRLKNVECGEVELMLEWTDGPGCKGLGREGSKKTPWMPTKRLD”, the protein production result is recorded as “failed”.

As for “MEDLERRQRSQVKTHEVQAHGRISRLIPAEDFGIIETPEGREIYFHRHSVVNSDFDRLTVGTAVRFAEEMGEEGPQASSVRVEGKHHLIGLEHHHHHH”, the protein production entry is recorded as “not failed”.

Regarding “MEDQGVLAGFFALSFAFILVILIWAIISYLLTAFALYSMAKNDGATDGVLAFIPFLNSKTWGDLAKDKLPDFLKEEAGWKVFGIYVACFIFNFVPIISLLATAVSIVLSIYLIYAILDRYGTNSILFTIIHVITFSVFLPIHLFIIRNEPVRYKE”, the protein production entry is “failed”.

For the sequence “MEDVKGKEIIDDAPIDNKVSDEMESEENAIKKKYGGLLPKKIPLISKDHERAFFDSADWALGKQKGQKPKGPLEALRPKLQPTPQQQPRARRMAYSSGETEDTEIDNNEAPDDQACASAVDSTNLKDDGGAKDNIKS”, the protein production result is given as “failed”.

“MEEELQHSHCVNCVSRRCMTRPEPGISCDLIGCPLVCGAVFHSCKADEHRLLCPFERVPCLNSDFGCPFTMARNKVAEHLEMCPASV”: the protein production entry was “not failed”.

For “MEEEMKKKVSRGELGGEAQNCPRCESPNTKFCYYNNYSLSQPRYFCKSCRRYWTKGGTLRNVPVGGGCRRNKRSSSSAFSKNNNNKSINFHTDPLQNPLITGMPPSSFGYDHSIDLNLAFATLQKHHLSSQATTPSFGFGGDLSIYGNSTNDVGIFGGQNGTYNNSLCYGFMSGNGNNNQNEIKMASTLGMSLEGNERKQENVNNNNNNSENPSKVFWGFPWQMTGDSAGVVPEIDPGRESWNGMVSSWNNGLLNTPLV”, the protein production entry was “not failed”.

In the case of “MEEGGDFDNYYGADNQSECEYTDWKSSGALIPAIYMLVFLLGTTGNGLVLWTVFRSSREKRRSADIFIASLAVADLTFVVTLPLWATYTYRDYDWPFGTFFCKLSSYLIFVNMYASVFCLTGLSFDRYLAIVRPVANARLRLRVSGAVATAVLWVLAALLAMPVMVLRTTGDLENTTKVQCYMDYSMVATVSSEWAWEVGLGVSSTTVGFVVPFTIMLTCYFFIAQTIAGHFRKERIEGLRKRRRLLSIIVVLVVTFALCWMPYHLVKTLYMLGSLLHWPCDFDLFLMNIFPYCTCISYVNSCLNPFLYAFFDPRFRQACTSMLCCGQSRCAGTSHSSSGEKSASYSSGHSQGPGPNMGKGGEQMHEKSIPYSQETLVVD”, the protein production result was “not failed”.

On to “MEEINKYIQNSSETGGEIYNLIEELFPICRSITGNGVRKTMDIIRKHIPLEIHEVKSGTKVFDWTVPKEWNIKDAYVRNSKGEKVIDFKENNLHVMSYSVPVHKTMTLDELKPYLHTIPGNKDRIPYLTSYYKENWGFSLTQNKFDELCDDDYEVVIDSSLEDGSLTYGEYYIRGELEEEILLTTYTCHPSMCNDNLSGVALITFIAKALSKLKTKYSYRFLFAPETIGSITWLSRNEDKLKNIKMGLVATCVGDAGIKNYKRTKFGDAEIDKIVEKVLMHCGSEYYVADFFPWGSDERQFSSPGINLSVGSLMRSCYGFDGYHTSADNLCYMNKDGLADSYKTYLEVIYTIENNRTYLNLNPKCEPQLGKRGIYRMIGGGSDYPFDEFAMFWVLNMSDGKNSLLDIAYKSGMEFRRIKYAADALYRVELLKLV”, for which the protein production entry is given as “not failed”.

On to “MEEITEGVNNMNLAVDTQKKNRIQVSNTKKPLFFYVNLAKRYMQQYTDVELSALGMAIATVVTVAEILKNNGFAVEKKIMTSTVDIKDDSRGRPVQKAKIEITLAKSEKFDELMAAANEEKEAAEAQEQN”, for which the protein production entry is given as “failed”.

In the case of “MEEKKIVELEKQVEDYRQFGFVLLSLSIFLFIGLVLPPSYAPQVAAEWLIAGIGGALTFAWLFNRKVVQCQQKLFEEEDQQ”, the protein production entry was “failed”.

“MEEKKSSGMFAVFAALGANVLVAISKFIGFGLSGSAAMLNESIHSVVDCGNQILLLFGDRRSRQASTNLHQFGEARAKYFFSMIVATFLFFGGGVIGVMEAYDKLVHPAHSVENAGIVIGILLIGMAIEGSSLRVAFKEISELNTEKLPIFKFLHESRHSEILVIFAEDLCAIIGLLLALLGTVLTMVTGNPIFDAISGLLIGFLLMAAAIFLTREFYSLIVGERVTDSDLEKILTAFDRPEVERVINVKTVHLGPTEILIAAKIDLVSKLVLEDYEIINQIEAEIRKKISDKKCYIYIEIDEFVQGYVQSSDL”: the protein production entry was “failed”.

In the case of “MEEKNGSSEVEIGEKDETKKQSKDLEFLSCMMQPKTADSDPHYIGIRRILLHRKADSGVISRRYDWRCNGKGYVAYRNFISKPRKWENLRTPSLLSSPGNSGRWLPSPSPLSHQFEAESFTSSRDLRSVNQVSSRRASFSSSLSDGDNSYRRGGVEHAYSFVGMHCIFDQCKSSVTVLKFGHMSSDILAYGASDGSLTVCSLLEEPSVLKQLTGHSKDVTDFDFSSNNQYIASSSLDKTIRVWELSRGVCIRVIYGISPQYCIRFHPVNNNFLSAGNANKELTVFNFSTGRIIKKLLFEDEVTSMDHDHTGQIIFCGDGQGTVYSVSMDSHTGSLSRSHRHRTNHKSPVTTVKYRSFSLLASGPVLLTCTQDGNLSFFSVALQIKGYLTLRCSLKLAPRIHRIQASFCPLLSLEKGEYIVAGSEDSNVYFYDLTKPKHTCVNKLQGHRFPVMCVAWNHGENLLASSDFYGVVIVWKRAKTSS”, the protein production result is listed as “failed”.

For “MEEKQPQKTKEPSKEDEPQQKEMPTHLSLGAESKAEAKTPVLVETQTVDNANEKSEKPPENQKKLSDKDTVATKIKAWWRGTLVRRALLHAALSACIIQCWWRLILSKILKKRRQAALEAFSRKEWAAVTLQSQARMWRIRRRYCQVLNAVRIIQAYWRCRSCASRGFIKGQYRVTANQLHLQLEILLDSGPCIVTECIPFSIKE”, the protein production entry is “failed”.

As for “MEELFCIGCGIQIQTEDKEKAGFTPAAALKKGMETGELYCQRCFRLRHYNEITDVHITDDEFLRLLHEVGDSDALVVNVIDIFDFNGSIIPGLSRFISGNDVLLVGNKKDILPKSVKDGKVTQWLTERAHEEGLRPLDVMLTSAQNKYAIKDLIGRINELRNGRDVYVVGVTNVGKSTLINAIIQEITGNKDVITTSRFPGTTLDKIEIPLDDGTFIFDTPGIIHRHQMAHYLSPKELKIVSPKKEIKPKTYQLNPEQTLFLGGLARFDFINGERQGFTAFFDNQLELHRTKLAGADAFYDKHVGTLLTPPDKKELTAFPKLVRHEFTIDQKMDIVFSGLGWIRVNGQKDSKAIVAAWAPEGVAVIVRKAIILEHHHHHH”, the protein production result is given as “not failed”.

On to “MEELLDILREFRDSRGWLKYHTPKNLAVSISIEVAELLEIFQWTRSSDEEFEVLERRKGEVEEEIADVLIYLLFLCDVAEINPIEAVKRKMEKNERKYPKNRVHEF”, for which the protein production entry is “not failed”.

(Values after a protein production outcome set (Wang et al. 2014).)
